Tests used:
Helios (Mus musculus) = Helios (Mus musculus) (UniProt P81183); experiment: cell_activity; conditions: NIH3T3 reporter; requires Ikaros sites
Ikaros = Ikaros (UniProt Q03267); experiment: cell_activity; conditions: NIH3T3 reporter
Sequence of Ikaros (Q03267 other isoform, or with tags, fused parts or gaps): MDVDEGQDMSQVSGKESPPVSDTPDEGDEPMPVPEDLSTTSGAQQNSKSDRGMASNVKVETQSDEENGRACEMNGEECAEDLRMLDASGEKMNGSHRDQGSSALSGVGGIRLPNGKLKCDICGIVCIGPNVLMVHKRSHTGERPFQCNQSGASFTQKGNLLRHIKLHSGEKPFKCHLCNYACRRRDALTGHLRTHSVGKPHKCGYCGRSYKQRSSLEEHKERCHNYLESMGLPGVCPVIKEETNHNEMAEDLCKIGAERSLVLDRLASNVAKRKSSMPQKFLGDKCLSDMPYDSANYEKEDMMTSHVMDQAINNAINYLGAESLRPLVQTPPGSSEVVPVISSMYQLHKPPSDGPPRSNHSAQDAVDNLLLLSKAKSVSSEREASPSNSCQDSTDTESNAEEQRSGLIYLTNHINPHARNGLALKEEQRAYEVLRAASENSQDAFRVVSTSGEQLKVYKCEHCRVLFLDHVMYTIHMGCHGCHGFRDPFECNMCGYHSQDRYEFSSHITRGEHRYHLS

Sequence of Helios (Mus musculus) (P81183 other isoform, or with tags, fused parts or gaps): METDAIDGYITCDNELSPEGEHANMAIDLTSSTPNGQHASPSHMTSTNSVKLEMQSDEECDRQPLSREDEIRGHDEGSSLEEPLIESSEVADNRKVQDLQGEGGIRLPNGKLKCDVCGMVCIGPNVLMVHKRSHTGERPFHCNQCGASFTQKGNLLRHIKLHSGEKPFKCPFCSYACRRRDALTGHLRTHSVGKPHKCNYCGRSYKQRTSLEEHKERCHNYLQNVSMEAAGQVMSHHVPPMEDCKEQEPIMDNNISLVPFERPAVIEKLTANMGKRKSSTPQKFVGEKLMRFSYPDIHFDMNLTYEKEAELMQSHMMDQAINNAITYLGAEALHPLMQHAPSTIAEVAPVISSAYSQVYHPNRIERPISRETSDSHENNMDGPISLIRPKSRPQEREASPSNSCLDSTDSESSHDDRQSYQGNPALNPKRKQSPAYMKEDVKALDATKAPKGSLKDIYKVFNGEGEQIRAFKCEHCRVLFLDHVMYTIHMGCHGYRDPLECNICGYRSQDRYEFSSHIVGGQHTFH

Substance: 4x IkBS2 reporter
- activity (fold activation) (Helios (Mus musculus)): 5
- activity (fold activation) (Ikaros): 7.8

Source: patent publication US20050130265
